From patent US20040248211A1 (published 2004)

B1: ICAM-1/IgG chimera (Fc fusion, UniProt P05362 28-480, looked up, not shown: a dimerising Fc or GST)
chain: QTSVSPSKVILPRGGSVLVTCSTSCDQPKLLGIETPLPKKELLLPGNNRKVYELSNVQEDSQPMCYSNCPDGQSTAKTFLTVYWTPERVELAPLPSWQPVGKNLTLRCQVEGGAPRANLTVVLLRGEKELKREPAVGEPAEVTTTVLVRRDHHGANFSCRTELDLRPQGLELFENTSAPYQLQTFVLPATPPQLVSPRVLEVDTQGTVVCSLDGLFPVSEAQVHLALGDQRLNPTVTYGNDSFSAKASVSVTAEDEGTQRLTCAVILGNQSQETLQTVTIYSFPAPNVILTKPEVSEGTEVTVKCEAHPRAKVTLNGVPAQPLGPRAQLLLKATPEDNGRSFSCSATLEVAGQLIHKNQTRELRVLYGPRLDERDCPGNWTWPENSQQTPMCQAWGNPLPELKCLKDGTFPLPIGESVTVTRDLEGTYLCRARSTQGEVTRKVTVNVLSPRYE
notes: also called ICAM-1/Ig fusion protein
B2: ICAM-R domain 1 peptide NGSQI, residues 72-76 (peptide)
peptide: NGSQI
notes: also called ICAM-R 72-76
B3: ICAM-R domain 1 peptide, residues 32-38 (peptide)
peptide: EKIALET
notes: also called ICAM-R 32-38
B4: ICAM-R domain 3 peptide GDQML, residues 230-234 (peptide)
peptide: GDQML
notes: also called ICAM-R 230-234
B5: ICAM-R domain 3 peptide, residues 271-276 (peptide)
peptide: GERREA
notes: also called ICAM-R 271-276
B6: ICAM-R/IgG chimera with domain 3 deleted (Fc fusion)
chain: QEFLLRVEPQNPVLSAGGSLFVNCSTDCPSSEKIALETSLSKELVASGMGWAAFNLSNVTGNSRILCSVYCNGSQITGSSNITVYGLPERVELAPLPPWQPVGQNFTLRCQVEGGSPRTSLTVVLLRWEEELSRQPAVEEPAEVTATVLASRDDHGAPFSCRTELDMQPQGLGLFVNTSAPRQLRTFLGPIVNLSEPTAHEGSTVTVSCMAGARVQVTLDGVPAAAPGQTAQLQLNATESDDGRSFFCSATLEVDGEFLHRNSSVQLRVLYGPKIDRATCPQHLKWKDKTRHVLQCQARGNPYPELRCLKEGSSREVPVGIPFFVNVTHNGTYQCQASSSRGKYTLVVVMDIEAFSSH
notes: also called domain 3 deletion chimera; not shown: human IgG1 hinge, CH2 and CH3
B7: ICAM-1 domain 1 peptide DGQST, residues 70-74 (peptide)
peptide: DGQST
notes: also called ICAM-1 70-74
B8: ICAM-1 domain 3 peptide GDQRL, residues 228-232 (peptide)
peptide: GDQRL
notes: also called ICAM-1 228-232

Legend:
[1] = molecular target: T1, VLA-4 (alpha4/beta1) on cells (UniProt P13612 34-1032; P05556 21-798, limits assumed); assay: adhesion of transfected COS cells to immobilized chimera (20 ug/ml coat)
T1 construct: whole, on cells; On Jurkat cells, T cells and COS cells transfected with alpha4 and beta1 cDNAs; also called α4/β1; α4β1

[2] = molecular target: CD18-independent counter-receptor for ICAM-R on Jurkat cells; assay: Jurkat cell adhesion to plate-bound shICAM-R, peptide 1-2 mg/ml
[3] = molecular target: T2, LFA-1 (CD11a/CD18) on cells (human, UniProt P20701 26-1170; P05107 23-769); assay: JY cell adhesion to plate-bound chimera
T2 construct: whole, on cells; On SKW3, JY, HL-60 cells, neutrophils and transfected CHO and COS cells; also called CD18/CD11a
T2 sequence (P20701 26-1170, chain 1 of 2): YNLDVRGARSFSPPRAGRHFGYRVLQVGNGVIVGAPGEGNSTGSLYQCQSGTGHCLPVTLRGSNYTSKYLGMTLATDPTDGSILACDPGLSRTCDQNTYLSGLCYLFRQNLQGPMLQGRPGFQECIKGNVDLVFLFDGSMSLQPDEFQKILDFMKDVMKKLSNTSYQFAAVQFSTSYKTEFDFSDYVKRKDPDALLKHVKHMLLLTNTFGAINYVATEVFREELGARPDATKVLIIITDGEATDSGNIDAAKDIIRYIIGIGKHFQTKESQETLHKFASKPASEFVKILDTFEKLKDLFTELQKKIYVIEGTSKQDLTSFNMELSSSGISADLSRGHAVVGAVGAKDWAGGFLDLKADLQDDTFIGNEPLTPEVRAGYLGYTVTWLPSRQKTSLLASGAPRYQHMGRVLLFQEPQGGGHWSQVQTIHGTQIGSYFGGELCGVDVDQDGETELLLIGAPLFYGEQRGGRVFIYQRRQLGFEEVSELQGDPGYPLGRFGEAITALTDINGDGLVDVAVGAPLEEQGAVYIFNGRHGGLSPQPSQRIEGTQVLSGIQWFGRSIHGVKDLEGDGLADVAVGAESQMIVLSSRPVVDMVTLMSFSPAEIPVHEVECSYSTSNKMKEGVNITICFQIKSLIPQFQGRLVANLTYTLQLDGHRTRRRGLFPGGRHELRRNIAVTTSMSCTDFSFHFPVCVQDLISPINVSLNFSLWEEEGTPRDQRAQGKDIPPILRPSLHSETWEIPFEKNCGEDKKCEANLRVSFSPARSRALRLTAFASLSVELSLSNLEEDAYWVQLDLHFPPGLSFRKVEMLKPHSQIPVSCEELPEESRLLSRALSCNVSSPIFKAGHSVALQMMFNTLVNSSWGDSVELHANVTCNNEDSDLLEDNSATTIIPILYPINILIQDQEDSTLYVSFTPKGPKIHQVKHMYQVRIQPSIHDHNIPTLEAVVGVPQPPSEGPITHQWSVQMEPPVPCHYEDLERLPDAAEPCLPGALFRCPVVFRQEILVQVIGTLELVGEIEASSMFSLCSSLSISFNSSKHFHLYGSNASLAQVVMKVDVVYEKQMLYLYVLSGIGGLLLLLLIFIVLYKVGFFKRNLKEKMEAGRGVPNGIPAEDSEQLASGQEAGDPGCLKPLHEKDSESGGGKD
T2 sequence (P05107 23-769, chain 2 of 2): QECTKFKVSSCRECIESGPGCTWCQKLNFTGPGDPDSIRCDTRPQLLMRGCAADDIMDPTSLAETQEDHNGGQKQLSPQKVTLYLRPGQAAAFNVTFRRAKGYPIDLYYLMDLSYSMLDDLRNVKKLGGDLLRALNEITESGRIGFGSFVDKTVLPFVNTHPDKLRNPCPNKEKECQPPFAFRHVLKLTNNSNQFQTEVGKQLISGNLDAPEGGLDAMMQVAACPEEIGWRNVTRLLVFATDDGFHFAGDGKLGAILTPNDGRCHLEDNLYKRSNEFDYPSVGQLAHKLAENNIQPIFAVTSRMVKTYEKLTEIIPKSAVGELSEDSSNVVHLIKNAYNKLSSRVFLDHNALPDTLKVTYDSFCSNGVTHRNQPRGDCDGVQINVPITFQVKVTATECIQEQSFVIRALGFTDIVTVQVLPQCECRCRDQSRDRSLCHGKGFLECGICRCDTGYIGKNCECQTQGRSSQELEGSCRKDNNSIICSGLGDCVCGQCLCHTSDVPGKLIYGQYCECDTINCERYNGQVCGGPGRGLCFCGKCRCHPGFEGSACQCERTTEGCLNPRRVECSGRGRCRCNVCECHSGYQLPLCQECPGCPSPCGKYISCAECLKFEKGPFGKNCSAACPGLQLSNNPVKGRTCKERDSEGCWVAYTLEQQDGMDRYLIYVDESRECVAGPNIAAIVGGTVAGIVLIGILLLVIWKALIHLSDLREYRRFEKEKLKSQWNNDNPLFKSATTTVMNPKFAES

Binder | % Inhibition of cell binding to shICAM-R [2] [%] | other results
B1 | – | binding result [1]: no binding
B2 | 17 | –
B3 | 10 | –
B4 | 36 | –
B5 | 11 | –
B6 | – | binding result [3]: binds
B7 | 9 | –
B8 | 22 | –
